Laboratory results from publication PMC3416860, “TC10 Is Regulated by Caveolin in 3T3-L1 Adipocytes” (PLoS ONE, 2012).

Tests used:
[1] = target: T1, GST-TC10 (Homo sapiens, UniProt P17081); experiment: radioligand binding to GST-fusion on glutathione-agarose; details: 10 mM MgCl2, pH 7.5, room temperature, labelled compound
T1 construct: gene RHOQ; GST fusion (GST kept), expressed in E. coli Rosetta-gami (DE3), glutathione-agarose purified; plasmid from I. Macara

[2] = target: myc-Caveolin 1 wild-type (pKMyc-Caveolin 1) (UniProt Q03135); experiment: co-IP; COS-1 cells co-transfected with myc-Caveolin 1 and HA-TC10 plasmids; lysed in HNTG buffer (50 mM HEPES pH 7.4, 150 mM NaCl, 10% glycerol, 1% Triton X-100); immunoprecipitated with anti-myc antibodies and Protein A/G beads, blotted for HA
[3] = target: T2, GST-TC10 (human, UniProt P17081 1-205); experiment: pull-down; purified MBP-Caveolin 1(1-99) and GST-TC10 incubated with GDP overnight at 4 C; glutathione agarose 1 h, washed, eluted in SDS sample buffer; blots with anti-GST or anti-MBP; details: both partners purified
T2 construct: TC10 (RhoQ); Expression plasmid obtained from Dr. Ian Macara; Used as purified (with endogenous GDP) or preincubated with GDP or a nonhydrolyzable GTP analog; also called TC10-GDP; source: E. coli Rosetta-gami (DE3), purified (glutathione-agarose)
T2 sequence (P17081 whole entry): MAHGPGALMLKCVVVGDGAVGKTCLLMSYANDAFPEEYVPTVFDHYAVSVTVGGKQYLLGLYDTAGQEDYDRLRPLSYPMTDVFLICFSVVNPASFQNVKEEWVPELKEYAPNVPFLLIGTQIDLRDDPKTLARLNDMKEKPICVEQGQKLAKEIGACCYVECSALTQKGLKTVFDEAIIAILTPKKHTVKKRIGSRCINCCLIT

[4] = target: T2, GST-TC10; experiment: pull-down; GST-TC10 on glutathione-agarose beads, preincubated with nucleotides as indicated (GDP or a nonhydrolyzable GTP analog), used to precipitate proteins from a 3T3-L1 adipocyte lysate; blot with anti-Caveolin antibodies; details: one partner purified

T1 sequence (P17081 whole entry, the tested form may be a part): as the sequence (P17081 whole entry) above

Nc1nc2c(ncn2[C@@H]2O[C@H](COP(=O)(O)OP(=O)(O)OP(O)(O)=S)[C@@H](O)[C@H]2O)c(=O)[nH]1 [GTPγS]
radioligand binding to GST-fusion on glutathione-agarose [1]: incubated radiolabeled GTPγS with recombinant GST, GST-TC10 or GST-Cdc42

HA-TC10 T31N (pKH3-TC10 T31N), dominant-interfering mutant (natural protein)
fold interaction against the constitutively active allele (Q75L) [2]: > 10 fold

HA-TC10 Y37A/Y46A (pKH3-TC10 Y37A/Y46A) (natural protein)
percent decrease of co-immunoprecipitation against wild-type TC10 [2]: > 75%

B1: MBP-Caveolin 1(1-99) (domain or fragment, UniProt Q03135 1-99, looked up)
chain: MSGGKYVDSEGHLYTVPIREQGNIYKPNNKAMADELSEKQVYDAHTKEIDLVNRDPKHLNDDVVKIDFEDVIAEPEGTHSFDGIWKASFTTFTVTKYWF
notes: Caveolin 1, the first 99 amino acids; The vector may add further tags and a TEV site; source: E. coli Rosetta-gami (DE3), purified (amylose resin)
fold precipitated with TC10-GDP against GTP analog bound TC10 [3]: > 4 fold

B2: Caveolin 1, endogenous in 3T3-L1 adipocytes (natural protein, mouse (endogenous in 3T3-L1), UniProt P49817 1-178, looked up)
chain: MSGGKYVDSEGHLYTVPIREQGNIYKPNNKAMADEVTEKQVYDAHTKEIDLVNRDPKHLNDDVVKIDFEDVIAEPEGTHSFDGIWKASFTTFTVTKYWFYRLLSTIFGIPMALIWGIYFAILSFLHIWAVVPCIKSFLIEIQCISRVYSIYVHTFCDPLFEAIGKIFSNIRISTQKEI
notes: Caveolin 1, endogenous, detected with anti-Caveolin antibodies; source: endogenous, 3T3-L1 adipocyte lysate
fold enhancement of the interaction after GDP binding [4]: ~2 fold
